From the supplement of paper PMC7125110
± gives the standard error. For some of these results: Variants at the floor of the assay were thinned out.

B1: glmS ribozyme (parent)
chain: AUAAAAGCGCCAGAACUACAGAAAUGUAGUUGACGAGGAGGAGGUUUAUCGAAUUUUCGGCGGAUGCCUCCAAA

How the values were obtained:
Details in all cases: with glucosamine-6-phosphate
glucosamine-6-phosphate [1] = variants of: B1; assay: kcat; higher = faster cleavage; RNA array
How it was run: (§1)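 Over ~14 h at 37 °C, tiles were imaged as glucosamine-6-phosphate (40 μM to 10 mM) in HEPES/KCl/Mg(OAc)2 buffer flowed across sequenced MiSeq chips. The chips carried barcoded ribozyme variants transcribed in situ by E. coli RNA polymerase and tracked with a hybridised Cy3 probe. After normalisation to baseline and to non-cleaving reference variants, one- or two-exponential decay fits of per-tile medians gave kobs. kcat and KM followed from weighted Michaelis–Menten fits across concentrations.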

glucosamine-6-phosphate [2] = variants of: B1; assay: self-cleavage kobs at 10000 uM GlcN6P; higher = faster cleavage; RNA array
How it was run: as §1

glucosamine-6-phosphate [3] = variants of: B1; assay: KM; higher = weaker cofactor use; RNA array
How it was run: as §1

glucosamine-6-phosphate [4] = variants of: B1; assay: self-cleavage kobs at 160 uM GlcN6P; higher = faster cleavage; RNA array
How it was run: as §1

glucosamine-6-phosphate [5] = variants of: B1; assay: self-cleavage kobs at 640 uM GlcN6P; higher = faster cleavage; RNA array
How it was run: as §1

glucosamine-6-phosphate [6] = variants of: B1; assay: self-cleavage kobs at 2500 uM GlcN6P; higher = faster cleavage; RNA array
How it was run: as §1

glucosamine-6-phosphate [7] = variants of: B1; assay: self-cleavage kobs at 40 uM GlcN6P; higher = faster cleavage; RNA array
How it was run: as §1

Variant | kcat (glucosamine-6-phosphate [1]) | self-cleavage kobs at 10000 uM GlcN6P (glucosamine-6-phosphate [2]) | KM (glucosamine-6-phosphate [3]) | self-cleavage kobs at 160 uM GlcN6P (glucosamine-6-phosphate [4]) | self-cleavage kobs at 640 uM GlcN6P (glucosamine-6-phosphate [5]) | self-cleavage kobs at 2500 uM GlcN6P (glucosamine-6-phosphate [6]) | self-cleavage kobs at 40 uM GlcN6P (glucosamine-6-phosphate [7])
A33G U57G | 1.21e-05 ± 4.2e-06 s⁻¹ | < 1e-05 s⁻¹ |  |  |  |  | 
A12U G37A G40C | 0.00099 ± 0.00024 s⁻¹ | 0.000686 ± 0.00012 s⁻¹ | 4220 ± 1400 µM | 2.74e-05 ± 1.2e-05 s⁻¹ | 0.000134 ± 1.7e-05 s⁻¹ | 0.000386 ± 9.8e-05 s⁻¹ | 
G29C G32U A33U C50G U56G G66C U69C | 1.64e-05 ± 5.6e-06 s⁻¹ |  |  |  |  |  | 
A12C C70U C71U | 0.000174 ± 1.1e-05 s⁻¹ | 0.000154 ± 2.8e-05 s⁻¹ | 1270 ± 200 µM |  | 6.04e-05 ± 1.5e-05 s⁻¹ |  | 
A48U A64U | 0.000129 ± 1.1e-05 s⁻¹ | 8.33e-05 ± 1.3e-05 s⁻¹ | 5510 ± 1000 µM |  |  | 4.13e-05 ± 1.2e-05 s⁻¹ | 
A53C U69G | 4.01e-05 ± 8e-06 s⁻¹ |  |  |  | 5.28e-05 ± 1.3e-05 s⁻¹ | 4.25e-05 ± 8.8e-06 s⁻¹ | 
G40A U49G | 0.000121 ± 1.7e-06 s⁻¹ | 0.000108 ± 1.3e-05 s⁻¹ | 1210 ± 55 µM |  | 4.19e-05 ± 1e-05 s⁻¹ |  | 
A42G A53U | 0.0339 ± 0.012 s⁻¹ | 0.0373 ± 0.009 s⁻¹ | 2240 ± 990 µM | 0.00186 ± 0.00035 s⁻¹ | 0.0076 ± 0.0013 s⁻¹ | 0.0159 ± 0.0028 s⁻¹ | 0.000764 ± 0.00011 s⁻¹
G41U A52G | 0.000128 ± 2e-05 s⁻¹ | 0.000107 ± 1.1e-05 s⁻¹ | 1140 ± 560 µM |  | 3.83e-05 ± 8.7e-06 s⁻¹ | 0.000113 ± 1.3e-05 s⁻¹ | 
A15C C70A | 6.11e-05 ± 1.2e-05 s⁻¹ | 4.95e-05 ± 8.2e-06 s⁻¹ |  | 3.37e-05 ± 1.6e-05 s⁻¹ | 5.56e-05 ± 1.2e-05 s⁻¹ | 9.56e-05 ± 1.5e-05 s⁻¹ | 
A39C U46C | 0.00261 ± 0.00017 s⁻¹ | 0.00206 ± 0.00025 s⁻¹ | 2740 ± 280 µM | 0.000168 ± 3.9e-05 s⁻¹ | 0.000488 ± 6.6e-05 s⁻¹ | 0.00122 ± 0.00023 s⁻¹ | 3.41e-05 ± 9.8e-06 s⁻¹
C16G U46C | 0.000353 ± 5e-05 s⁻¹ | 0.00032 ± 9e-05 s⁻¹ | 2310 ± 630 µM |  | 8.24e-05 ± 2.7e-05 s⁻¹ | 0.000169 ± 3.5e-05 s⁻¹ | 
A6G U54G | 0.000277 ± 1.2e-05 s⁻¹ | 0.000251 ± 3.1e-05 s⁻¹ | 1230 ± 140 µM |  | 9.48e-05 ± 1.7e-05 s⁻¹ | 0.000179 ± 2.9e-05 s⁻¹ | 
G9C C61G | 0.00838 ± 0.0021 s⁻¹ | 0.00575 ± 0.00085 s⁻¹ | 4330 ± 1400 µM | 0.000309 ± 5.7e-05 s⁻¹ | 0.000828 ± 0.00017 s⁻¹ | 0.00371 ± 0.00066 s⁻¹ | 9.12e-05 ± 1.6e-05 s⁻¹
U30A C58A | 0.000164 ± 5e-05 s⁻¹ | 0.000114 ± 2.4e-05 s⁻¹ |  |  |  | 9.07e-05 ± 2.9e-05 s⁻¹ | 
G59A C71U | 6.15e-05 ± 1.4e-06 s⁻¹ | 5.51e-05 ± 6.9e-06 s⁻¹ | 1210 ± 130 µM |  |  | 4.05e-05 ± 7.8e-06 s⁻¹ | < 1e-05 s⁻¹
A15G G32C | 0.000278 ± 6.2e-05 s⁻¹ | 0.000154 ± 2e-05 s⁻¹ | 8170 ± 3300 µM |  |  | 6.16e-05 ± 1.6e-05 s⁻¹ | 

Variant | kcat (glucosamine-6-phosphate [1]) | self-cleavage kobs at 10000 uM GlcN6P (glucosamine-6-phosphate [2]) | KM (glucosamine-6-phosphate [3]) | self-cleavage kobs at 160 uM GlcN6P (glucosamine-6-phosphate [4]) | self-cleavage kobs at 640 uM GlcN6P (glucosamine-6-phosphate [5]) | self-cleavage kobs at 2500 uM GlcN6P (glucosamine-6-phosphate [6]) | self-cleavage kobs at 40 uM GlcN6P (glucosamine-6-phosphate [7])
C11A A52U C67G | 2.85e-05 ± 4.6e-06 s⁻¹ |  |  |  |  |  | 
C11A C61U C67G | < 1e-05 s⁻¹ |  |  |  |  |  | 
G9A G37C | < 1e-05 s⁻¹ |  |  |  |  |  | < 1e-05 s⁻¹
U57G C68A | 2.56e-05 ± 8.2e-06 s⁻¹ |  |  |  | 3.37e-05 ± 1.4e-05 s⁻¹ |  | 
A15G G43A | 8.91e-05 ± 1.1e-05 s⁻¹ | 7.17e-05 ± 1.4e-05 s⁻¹ | 2300 ± 940 µM |  |  | 4.89e-05 ± 1.5e-05 s⁻¹ | < 1e-05 s⁻¹
C34A U46G | < 1e-05 s⁻¹ | < 1e-05 s⁻¹ |  |  | < 1e-05 s⁻¹ | < 1e-05 s⁻¹ | < 1e-05 s⁻¹
C58U | 0.00011 ± 3.8e-06 s⁻¹ | 7.7e-05 ± 1.3e-06 s⁻¹ | 4350 ± 360 µM |  | 1.66e-05 ± 1.8e-06 s⁻¹ | 3.96e-05 ± 1.2e-06 s⁻¹ | < 1e-05 s⁻¹
A42U A48U A64U C68U | < 1e-05 s⁻¹ | < 1e-05 s⁻¹ | 11.3 ± 3.5 µM |  |  | < 1e-05 s⁻¹ | 
A14U G29A | 0.00088 ± 5.1e-05 s⁻¹ | 0.000665 ± 0.00011 s⁻¹ | 3420 ± 290 µM | 4.16e-05 ± 1e-05 s⁻¹ | 0.000137 ± 1.7e-05 s⁻¹ | 0.000368 ± 5.1e-05 s⁻¹ | 
U54A U56G | 0.0107 ± 0.0029 s⁻¹ | 0.0131 ± 0.0038 s⁻¹ | 1740 ± 650 µM | 0.000857 ± 0.00017 s⁻¹ | 0.00363 ± 0.00057 s⁻¹ | 0.00548 ± 0.00089 s⁻¹ | 0.000226 ± 4.9e-05 s⁻¹
U46G G66U C67U | 0.000249 ± 2.4e-05 s⁻¹ | 0.00023 ± 3.9e-05 s⁻¹ | 804 ± 230 µM |  | 0.000128 ± 3e-05 s⁻¹ | 0.000172 ± 6.1e-05 s⁻¹ | 
A39U G43U | 0.000561 ± 0.00011 s⁻¹ | 0.00046 ± 4.6e-05 s⁻¹ | 1770 ± 600 µM | 5.96e-05 ± 8.5e-06 s⁻¹ | 0.000127 ± 1.3e-05 s⁻¹ | 0.000418 ± 4.9e-05 s⁻¹ | 1.76e-05 ± 8.1e-06 s⁻¹
C8A G60A | < 1e-05 s⁻¹ |  | 86.3 ± 25 µM | < 1e-05 s⁻¹ |  |  | 
G7U A53C C58A U69G C70U | 0.000741 ± 0.00023 s⁻¹ |  |  |  |  | 0.000875 ± 0.00036 s⁻¹ | 7.41e-05 ± 3.3e-05 s⁻¹
C50G G63C | 2.84e-05 ± 1.1e-05 s⁻¹ |  |  | 3.67e-05 ± 1.6e-05 s⁻¹ |  |  | 
U55A U69A | 9.24e-05 ± 1e-05 s⁻¹ | 0.000129 ± 2.7e-05 s⁻¹ |  | 9.45e-05 ± 2.4e-05 s⁻¹ | 9.88e-05 ± 1.9e-05 s⁻¹ | 7.93e-05 ± 1.3e-05 s⁻¹ | 7.99e-05 ± 1.9e-05 s⁻¹
G63U U69G | 2.86e-05 ± 7.3e-06 s⁻¹ |  |  | 3.51e-05 ± 1.5e-05 s⁻¹ | 3.96e-05 ± 1.5e-05 s⁻¹ |  | 
